Laboratory results from patent US20140162285A1, “Methods of Modulating Vesicular Trafficking” (The General Hospital Corporation, priority 2009, published 2014).

Molecular target: T1, ARNO PH-domain (Homo sapiens, UniProt Q99418)
T1 construct: iv) 253-378aa, plekstrin-homology (PH) domain; made in house; host or cells: E. coli BL21(DE3)
T1 sequence (Q99418 253-378): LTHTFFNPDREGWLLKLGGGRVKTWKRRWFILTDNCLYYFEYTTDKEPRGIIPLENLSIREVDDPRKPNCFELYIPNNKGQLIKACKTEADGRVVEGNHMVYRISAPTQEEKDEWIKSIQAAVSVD
Experiment: GST pull-down of in vitro translated a2N with ARNO PH-domain
Type: binding
Conditions: Western blot anti-a2N
Description: The purified recombinant GST-ARNO(wt) and GST-tagged ARNO domain constructs ([…]) were incubated with 10 μl of in vitro translated 6His-a2N recombinant protein at 4° C. for 2 hours in 500 μl of binding buffer (10 mM HEPES, 1 mM EDTA, 1 mM DTT, 100 mM NaCl, 10% glycerol, 0.1% NP-40) with gentle rotation. Then the interacting recombinant proteins were immobilized on glutathione beads by incubation with 50 μl of 50% glutathione Sepharose 4B slurry for 2 hours at 4° C. The beads were collected by centrifugation and washed 5 times with 500 μl ice-cold binding buffer. Interacting proteins were eluted by boiling in SDS-PAGE sample buffer for 10 min at 95° C., resolved by SDS-PAGE and analyzed by Western blotting using polyclonal anti-a2N antibodies. […]
To examine the ability of these well-defined and functionally distinct domains of ARNO to interact with a2N1-402, full-length ARNO(wt) and its four domains were cloned separately for bacterial expression of recombinant proteins (FIG. 3). […] Interacting proteins were detected by western blot analysis with a2-specific antibodies as described above.

interaction of a2N with ARNO PH-domain: weakly
B1: a2N: recombinant N-terminal cytosolic tail, amino acid residues 1-402 of mouse V-ATPase a2-subunit (protein)
chain: MGSLFRSESMCLAQLFLQSGTAYECLSALGEKGLVQFRDLNQNVSSFQRKFVGEVKRCEELERILVYLVQEITRADIPLPEGEASPPAPPLKHVLEMQEQLQKLEVELREVTKNKEKLRKNLLELVEYTHMLRVTKTFLKRNVEFEPTYEEFPALENDSLLDYSCMQRLGAKLGFVSGLIQQGRVEAFERMLWRACKGYTIVTYAELDECLEDPETGEVIKWYVFLISFWGEQIGHKVKKICDCYHCHIYPYPNTAEERREIQEGLNTRIQDLYTVLHKTEDYLRQVLCKAAESVCSRVVQVRKMKAIYHMLNMCSFDVTNKCLIAEVWCPEVDLPGLRRALEEGSRESGATIPSFMNTIPTKETPPTLIRTNKFTEGFQNIVDAYGVGSYREVNPALFTII
modifications: left off: small tags and cut ends
notes: recombinant N-terminal cytosolic tail, amino acid residues 1-402 of mouse V-ATPase a2-subunit
